The record followed here is US20240209330A1 (10X GENOMICS, published 2024).

The experiment addresses T1, recombinant Phi29 polymerase-SpyTag fusion protein (Bacillus phage phi29 (Bacteriophage …, UniProt P03680 2-575)).
T1 construct: Expressed in E. coli with an amino terminal polyhistidine/SUMO tag (N-His/SUMO); The tag was cleaved with ULP1; also called N-His/SUMO Phi29 polymerase-SpyTag fusion protein; Phi29 with K-linker-SpyTag003
T1 sequence: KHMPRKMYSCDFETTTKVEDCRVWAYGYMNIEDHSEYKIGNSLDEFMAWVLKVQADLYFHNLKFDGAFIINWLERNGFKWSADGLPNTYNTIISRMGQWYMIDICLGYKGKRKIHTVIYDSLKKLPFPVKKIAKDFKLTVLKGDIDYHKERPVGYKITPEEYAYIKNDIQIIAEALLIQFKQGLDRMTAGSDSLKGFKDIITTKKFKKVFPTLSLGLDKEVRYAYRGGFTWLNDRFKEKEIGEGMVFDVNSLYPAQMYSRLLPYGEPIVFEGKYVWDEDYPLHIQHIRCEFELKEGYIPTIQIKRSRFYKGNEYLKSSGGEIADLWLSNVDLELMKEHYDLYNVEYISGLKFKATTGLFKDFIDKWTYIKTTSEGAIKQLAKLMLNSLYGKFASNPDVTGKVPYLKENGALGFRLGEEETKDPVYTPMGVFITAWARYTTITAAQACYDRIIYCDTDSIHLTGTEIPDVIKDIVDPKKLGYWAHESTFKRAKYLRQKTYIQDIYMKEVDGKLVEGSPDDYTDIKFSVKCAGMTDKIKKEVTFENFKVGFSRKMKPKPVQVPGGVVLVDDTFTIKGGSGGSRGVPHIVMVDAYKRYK
Put plainly: co-expression in E. coli, nickel purification, SDS-PAGE (covalent SpyCatcher:SpyTag coupling). The source says:
N-His/SUMO recombinant Phi29 polymerase-SpyCatcher fusion protein and recombinant Phi29 polymerase-SpyTag fusion protein were expressed as described in Example 3. The soluble fraction was collected and run on a nickel column. The SDS-PAGE for the various fractions are shown in FIG. 9A (SpyCatcher) and FIG. 9B (SpyTag). The SUMO tag was cleaved using a recombinant Ubl-specific protease 1 (ULP1). Fractions were collected for pre- and post-cleavage of the N-His/SUMO tag, as shown in FIG. 10A (SpyCatcher) and FIG. 10B (SpyTag). Each elution fraction was collected as 1 mL aliquots using an 80-100% gradient of 1 M NaCl.
When the Phi29 polymerase-SpyCatcher fusion protein, the Phi29 polymerase-SpyTag fusion protein were co-expressed in E. coli, a dimer of fusion proteins (e.g., a dimer of Phi29 polymerase-SpyCatcher:Phi29 polymerase-SpyTag; comprising two Phi29 polymerase domains), with an approximate molecular weight of 147.974 kDa, was generated based on the protein coupling between SpyCatcher:SpyTag. (FIG. 10C, lane 3).

B1: recombinant Phi29 polymerase-SpyCatcher fusion protein (enzyme)
chain: KHMPRKMYSCDFETTTKVEDCRVWAYGYMNIEDHSEYKIGNSLDEFMAWVLKVQADLYFHNLKFDGAFIINWLERNGFKWSADGLPNTYNTIISRMGQWYMIDICLGYKGKRKIHTVIYDSLKKLPFPVKKIAKDFKLTVLKGDIDYHKERPVGYKITPEEYAYIKNDIQIIAEALLIQFKQGLDRMTAGSDSLKGFKDIITTKKFKKVFPTLSLGLDKEVRYAYRGGFTWLNDRFKEKEIGEGMVFDVNSLYPAQMYSRLLPYGEPIVFEGKYVWDEDYPLHIQHIRCEFELKEGYIPTIQIKRSRFYKGNEYLKSSGGEIADLWLSNVDLELMKEHYDLYNVEYISGLKFKATTGLFKDFIDKWTYIKTTSEGAIKQLAKLMLNSLYGKFASNPDVTGKVPYLKENGALGFRLGEEETKDPVYTPMGVFITAWARYTTITAAQACYDRIIYCDTDSIHLTGTEIPDVIKDIVDPKKLGYWAHESTFKRAKYLRQKTYIQDIYMKEVDGKLVEGSPDDYTDIKFSVKCAGMTDKIKKEVTFENFKVGFSRKMKPKPVQVPGGVVLVDDTFTIKGGSGGSVTTLSGLSGEQGPSGDMTTEEDSATHIKFSKRDEDGRELAGATMELRDSSGKTISTWISDGHVKDFYLYPGKYTFVETAAPDGYEVATPIEFTVNEDGQVTVDGEATEGDAHT
notes: Expressed in E. coli with an amino terminal polyhistidine/SUMO tag (N-His/SUMO); The tag was cleaved with ULP1; also called N-His/SUMO Phi29 polymerase-SpyCatcher fusion protein; Phi29 with K-linker-SpyCatcher003
With B1, the binding result is listed as “binds”.
